Experimental data published in patent publication US20060159616.

Columns and labels:
[1] = target: T1, V-P-R-AMC fluorogenic substrate
T1 chain: VPR

[2] = target: T2, F-S-R-AMC fluorogenic substrate
T2 chain: FSR

B1: recombinant hK13 protein (active form of human kallikrein 13, produced in Pichia pastoris) (protein)
chain: VLNTNGTSGFLPGGYTCFPHSQPWQAALLVQGRLLCGGVLVHPKWVLTAAHCLKEGLKVYLGKHALGRVEAGEQVREVVHSIPHPEYRRSPTHLNHDHDIMLLELQSPVQLTGYIQTLPLSHNNRLTPGTTCRVSGWGTTTSPQVNYPKTLQCANIQLRSDEECRQVYPGKITDNMLCAGTKEGGKDSCEGDSGGPLVCNRTLYGIVSWGDFPCGQPDRPGVYTRVSRYVLWIRETIRKYETQQQKWLKGPQ
For B1, the “fluorescence of the substrate VPR-AMC, 10 ng of enzyme (substrate alone 0.5 arbitrary units)” value [1] was “to 1.9 arbitrary units (10 ng of enzyme)”, the “fluorescence of the substrate VPR-AMC, 100 ng of enzyme (substrate alone 0.5 arbitrary units)” value [1] was “to 13.9 arbitrary units (100 ng of enzyme)” and the “fluorescence of the substrate VPR-AMC, 160 ng of enzyme (substrate alone 0.5 arbitrary units)” value [1] was “to 35.5 arbitrary units (160 ng of enzyme)”. The “fluorescence of the substrate FSR-AMC, 10 ng of hK13 (substrate alone 1.1 arbitrary units)” value [2] was “to 1.9 arbitrary units (10 ng of hK13)”, the “fluorescence of the substrate FSR-AMC, 100 ng of hK13 (substrate alone 1.1 arbitrary units)” value [2] was “to 6.9 arbitrary units (100 ng of hK13)” and the “fluorescence of the substrate FSR-AMC, 160 ng of hK13 (substrate alone 1.1 arbitrary units)” value [2] was “to 14.5 arbitrary units (160 ng of hK13)”.
